Assay results taken from the domain aggregation screens of Martell et al. (2025).

assay: soluble fraction after stress (log2 fold change); higher = more stays soluble; pooled small domains, quantitative proteomics; details: stress: 75 degC
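Also: 20 min heating vs room temperature control held 20 min.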

Going from “HMEDEISLGAINVPRGSVIVTAGGARLVEGSDYTVDYYSGTVKILNKSLLDAGTPINVSLET” to “HMEDETAKVLRLLAENNGYLPYNDKSDPTDIYAFFGMSKKAFKMTTGNLYKQKKIQFTQTGIQLIE”, the “soluble fraction (log2)” value falls from -0.0249 to -1.77.

Compared with “HMEDEVSSSAAYQALLEKGVSKTLARSWVIDYGEAYVLDKVDLTTSQAARGKIKSSTAGFLKAAIEEDFHN”, “HMEDGEALARAVASLPGKYREVLFLKYSHGYSVDEIALILSMSKENVKKTIQRARKKLEQLLESE” is lower in “soluble fraction (log2)” value: -0.0992 for the first, -1.3 for the second.

First: HMEDGEVTVPDLRGLTIKEAGTILEKLGLHLSPVGTGLAVRQDVAPGSKVARDTTITVEFEPPDIQVLR
Second: HMEDIKHVVANNIKKYRKEERLTLQQLSYLTGVSKTMLNQIETEKSSPSITILWRISSGLKIPLSKLISSP
The “soluble fraction (log2)” value of the first is higher: 0.374 for the first, -1.58 for the second.

Compared with “HMEDIPENIRYKFLLKELKENEHLNILDKENIARKLTEIDLPELEKELLENEILNSTIKDYLGIKLV”, “HMEDKFEYQGELKSLIEPTSFSELVSALNVRDTLQAIIDFAMREEDTSGYEELKVRQNDYIQEYLNSIGNF” is lower in “soluble fraction (log2)” value: 0.494 for the first, -0.761 for the second.

Going from “HMEDKFEYQGERKSLIYPTSFSELTEALGVRNMLQSIIDFATRDEDTSGYEEMKERQNEYIQEYL” to “HMEDKKQVLYELITDKSYRPLRFKELAVLLMVPKALRGELKQTLDELIKEGKITVDSSSRYRAA”, the “soluble fraction (log2)” value rises from -0.0262 to 0.599.

Compared with “HMEDLDKIISAYLDENPQIVSDYGKGNKKAVNSAIGFVMKSTGGKYSSSDIVDAVRSMIVSISV”, “HMEDNYYENKINYLFGYLDEADKEISVNSILDFHLAHRTNPEFVFEPKKNTNPLIWKYLSNSNLLY” is higher in “soluble fraction (log2)” value: -0.667 for the first, 0.398 for the second.

First: HMEDPLGDLIGRIAAATGRPVQDIVAEVHRVVTDHFDGNLRVEAAAVILARKYGVAFEDKLSALQRSV
Second: HMEDSAKRHQIMDGARRVFMDLGFDGASMNEIARAAGVSKGTLYVYFTDKNRLFEAIVEQESL
The “soluble fraction (log2)” value of the first is higher: 0.0325 for the first, -1.27 for the second.

First: HMEDSEYDRLLAEIDEGIRKAIETLEPVELSPQNARVRRIQHQIIEKYQLHSDSVGEEPYRRVRIL
Second: HMEDSHIYPVSFNGKMRFKLELPVSMNKKEIEEVVLQHEDAQKWLNGQNPKKVIVVPKRIINIV
The “soluble fraction (log2)” value of the first is lower: -0.596 for the first, 0.0193 for the second.

First: HMEDTVNVPIQINGKLRHVIQVQIGTSEEEIQKIALSEEQVKKFTDGHEILKVMVPKGKLVSIVI
Second: HMEDVLVTQIIQLKHVDANDMKTLFTPLLSRGSSQLLAYPQSNVLIITDTRSNIKKITEILDIIDKS
The “soluble fraction (log2)” value of the first is higher: -1.04 for the first, -3.02 for the second.

First: HMEDVRSLTGPEKAAIILLSLGEEHGQGVWRMFDDEEVKEVSQIMANLGTISASVVEKLLVEFVSQMST
Second: HMEDYYKILGVQSNSNPDDIKKAYRKLSLKHHPDRGGDASEFKKINEAYQTLGTPEKRKMYDMQQNN
The “soluble fraction (log2)” value of the first is lower: -0.96 for the first, -0.169 for the second.

Going from “HMEEEPALLRDLLAKTLEFGLIPQLSHHPALADRTQQLASAVRAAGSASALRNAAASLKSLWIDVDQ” to “HMEEFDLNAYITKINSAATLNALKQAYAEANSAALSVKDKDAQRKIIVEKDKRKAELIQETAG”, the “soluble fraction (log2)” value rises from -0.0158 to 0.453.

First: HMEEIALTDILNRFLSSLSLEQRKIFMRRYWYLSPIKEIATEYGMSESKIKMSLFRSRNELKKLLEKEGI
Second: HMEEINTAPVFKNIIEIAEYAKTKFTTVEEIPKMIEFIETANSKLDNPHDEESVNELINALSTNIRKNV
The “soluble fraction (log2)” value of the first is lower: -0.499 for the first, 0.347 for the second.

Compared with “HMEEITLIAEDEGLRLDTWLTDKLKDYSRSYIQKLMEDELVLVNGKARKANYRIKTGDEIHVSIPEPE”, “HMEELLVAVKADGSIWADGRPITPDGLASFIDSKPADAVLNLAVDKKAPFAAFVKVVDVAKEKKSGRFVIR” is lower in “soluble fraction (log2)” value: -0.0663 for the first, -0.41 for the second.

Going from “HMEELPIIVAQRFLNIFRQLHIFSDERREAFNKMLLELPPEVKSIFQSLPGGTPLQEYMEDLEQKSK” to “HMEELTPLQKYVFDYESDISDEVDMRAIKGLENANDVYDYYANVRGWEGDPDLEDDLDNIYRQVKARFA”, the “soluble fraction (log2)” value rises from -0.721 to 0.0255.

Going from “HMEEMTIRQKRTMIFFIEATKHILQEDGYDHLTIREIAQRAGYNAATLYHYFRDLDELIIYGSVG” to “HMEEPEELYRVKILIYNLLVRNGPGILYTRLRRADYPGEYGIYEEKNGYGKISATLSEWISLNTEYVQRLD”, the “soluble fraction (log2)” value falls from -0.439 to -3.72.

Going from “HMEEVYVPDIRDKSISDAKKILSQMGLKYRIEGEGYDDSTVIKDQTPKPGALLAKDSVVIAYINE” to “HMEEYLENLTQSKLLHMLDQLSPAYKTVFTLFVLDELSHEEISKMLNISIGTSKSNLFRARKVMRVLMESE”, the “soluble fraction (log2)” value falls from 0.0833 to -0.273.

Compared with “HMEFDIDAAIHAALEPQAVMRAWFGHEGREYPEDFGVVFFRGWESFTHQEKVEAVRDAKKVLDRAVR”, “HMEFDSLINYEVKKKETLFSISKKFKIEINDLLSFNTELKNNKLKKNSIIIIPLKKKIVESQNFEKQKIID” is lower in “soluble fraction (log2)” value: -1.18 for the first, -1.49 for the second.

“HMEFENIEQRKQYWSDLYRELKAGQDAYAKELKKGTEGYTQDELDILKEFTDEAKKQMEAAGVEATDEFAS” and “HMEFLLAIQPFVLLTDHANLTFLREQTDSMMKRIQINISGFEIEFRYVPGLTNILPDKMSRV” are within 0.2 log units of each other in “soluble fraction (log2)” value: -0.0427 for the first, 0.146 for the second.

“HMEFQEQLYRLRKQAGLSQEELSHIIGVSRQAVQKWEAGSARPDLDNLIALASHFKLSLDQLVGLT” and “HMEFQSIGGKIRIGREREHLTQAELAQKLSVTRQAVSNWERDKTLPDIYMIREIAEIFGLTLDEFMEGAKK” are within 0.2 log units of each other in “soluble fraction (log2)” value: -1.01 for the first, -1.02 for the second.

First: HMEGDAFAFTGDIQKDLLSITAVHPMRREAVDALIAKAGASWAIVEKLLAHGELTEAKHDGHLFYLRKF
Second: HMEGIAEILPASVRQKYGLIGLYDALRGLHFPGNMEEIKAARQRLAFEDTLMFSLTLSMMQYS
The “soluble fraction (log2)” value of the first is lower: -1.19 for the first, -0.146 for the second.

“HMEGIAYDINTAPEHIDLKAEDMMATFNIGKTALWRWVKQKILPPPYEYRSQAAHWTIGQIRDWKTA” and “HMEGLDDKTKIILFAGDKKEQEYSLADLKSKLNITENLTESELIKLLEKQGYVLDVNANNEFMFKKD” are within 0.2 log units of each other in “soluble fraction (log2)” value: -0.125 for the first, -0.012 for the second.

Going from “HMEGNFFADIRQELMRELDQEAEWSDVQILEKIDDLVLLRTRRSSLTVNEKEQLRKELFYSVRK” to “HMEGRTVMATTAVNVRSGPGTSYKILGVLYPGHTAQQIGNTRYGWAQVTWKGHTAYIAARYLRDS”, the “soluble fraction (log2)” value falls from -0.345 to -2.71.

First: HMEGSLQEDKVKEYQDRFKEELSNDLNTANSITVLYDLIKDDTLNGTTKRYLIEDFDKILSLDLIKE
Second: HMEGSVTVMVNGESVTMTGKQNYIFVDVFDWYSFDLSAGKGRAIATLVNGKEAEFSQPLANGDNIELYWKE
The “soluble fraction (log2)” value of the first is higher: 0.167 for the first, -2.15 for the second.

Compared with “HMEGTAAAVALKGLMEQSGVDLREVMAAVESRGYYPKGTPFENYDPAFVSGVLVGAWDQVYKMILDQRPIP”, “HMEGVSPQTVQEHIRRFIAAEDPASPLSDEALREALGNLGINASRRTVAKYRGEMGIPSSAQRKR” is higher in “soluble fraction (log2)” value: -0.692 for the first, -0.0573 for the second.

Going from “HMEGVSSESVKEMLKSIIDGEDPHNPVSDQRITDILNSRGINISRRTVAKYRDELGIASSSRRKRY” to “HMEGYLYLSESQNELILKNLKTPLKYNLYNASGKLIKKGNIKNTLDISELPKGVYIFTSSDNSFSKKFLKT”, the “soluble fraction (log2)” value falls from 0.298 to -1.55.

Compared with “HMEHAETDTRERILVVAERLFRQLGYQKTTVADIAKELRMSPANVYRFFDSKKSIHEGVARTL”, “HMEHETTQLELNAPGQRLDAALALALPDTSRAQIQQWIKQGLVTDQAGTALLQASLKLKSPLNVVLQRPI” is higher in “soluble fraction (log2)” value: -0.896 for the first, -0.215 for the second.

Compared with “HMEHIDVSGRAFDVSVSRLKRARRLTMRIDTHKQLVKISAPLHVESSTIRAFLARNQNWLEQQVEKR”, “HMEHLTATERHLVAYLEAHLGQVPSLSITKLSQEANVSTASIVRTMKKLGYDGFTAFKHAIKQQLR” is lower in “soluble fraction (log2)” value: -0.839 for the first, -2.67 for the second.

First: HMEHTPHGVALLRTLMDQYGLKAADLANELGSKSNVSNILNGRRALTVSHIKMLAERFNLPADAFI
Second: HMEIALNDKQILLFSNKLVHEPSFASKYSKVGESYDDFAIRISENLTIPDKVQEYLPYLEKVGFNI
The “soluble fraction (log2)” value of the first is lower: -1.33 for the first, -0.622 for the second.

“HMEIDDPWLILGINAGSSIEIAQKAWKDLASQNHPDKLIANGVPKELLGMANEKLAIINGAYDKILKAHKI” and “HMEIETPEIRAIHDLLELLANKAKKPEQEQFVQAHPEVQWAKVEANKNGTFAVGKVKAYLKTLQA” are within 0.2 log units of each other in “soluble fraction (log2)” value: -0.295 for the first, -0.39 for the second.

Going from “HMEIGNVIAKLRVSNGLNQREFAKKLEVSNGAVAMWETNKRQPDLEMIKKISNLFDVPTDYILGAGTFQ” to “HMEIIFVEHKVRPGESVWLIARKYKVKKNHILAVNNLSEKSIIRPKQILKIPTSGYDQYKKSVE”, the “soluble fraction (log2)” value falls from -0.838 to -3.79.

Compared with “HMEIIMIVITKPSITDERIAEIVAVIERNGGVQAHVSKGTDRTVIGIIGKAEPTLAEHLRQMKGVENVIKI”, “HMEIPMRDKLKTYIDYLFAGAPQTAATAETKAEILQNTLDKYDDLIAEGKTPEAAYSLAVSGIGDLGDF” is higher in “soluble fraction (log2)” value: -1.33 for the first, -0.179 for the second.

First: HMEIPTEEILKQKLYYSISEVASWFKVNTSLLRYWENEFDILQPRKTRKGDRLFRVEDIKNLQLIYLL
Second: HMEITGKYKAKEDIKLKVIPLISSLDLQDIKQNTELEVKDTMNNWAYVTVQEKQGWVVLEKIEKVE
The “soluble fraction (log2)” value of the first is higher: 0.26 for the first, -0.631 for the second.

“HMEITTLTGVLGAGRLDSALAAALPQYSRARIQALISDAALRINGQVVADAGSKKMSGQTFELNIPAPVP” and “HMEKDEYIFVDIDGAVFNPGVYKLIAGSRVIDAINLAGGLKEKAFTQNLNKARKLVDGEKIYIYLEGDEE” are within 0.2 log units of each other in “soluble fraction (log2)” value: -0.594 for the first, -0.552 for the second.

Going from “HMEKDRDKRIRKRVLTALKRNDKKMTDKAFALLTSRIRDESILDQEVLKLIGYVGDRTTIDSKDINIVVAE” to “HMEKEEELNSIRPDLDGNDIMEILGVPAGPKVGKAYNYLLNVRLDEGPLSRAEAISRLEAWWENQ”, the “soluble fraction (log2)” value rises from -0.392 to -0.168.

First: HMEKELVSDFASRISTARSSKGWNHAELGKRMAETVNVIKSAESGKPPTDSVVKKLERVLGITLMEV
Second: HMEKEYMKNVVGMEYRQARVLLGDMGLELAFQPVYETSDKYPTDVVVSTEPAADQPLTKGQTVILHIST
The “soluble fraction (log2)” value of the first is higher: -0.0517 for the first, -0.332 for the second.
